Data taken from paper doi:10.1101/2021.02.11.430706.

Key:
[1] = target: MtCNNMΔC_(Δloop) (Methanoculleus thermophilus CNNM, residues 1-322 Δ259-262) (Methanoculleus thermophilus); assay: crystal structure
[2] = target: MtCNNMΔC R235L (Methanoculleus thermophilus); assay: crystal structure

Substance	stoichiometry N [1]	stoichiometry N [2]
MtCNNMΔC_(Δloop) (Methanoculleus thermophilus CNNM, residues 1-322 Δ259-262) (domain or fragment)	2	
MtCNNMΔC R235L (domain or fragment)		2
